# T1: FtsB-mNG (E. coli, UniProt P0A6S5 1-103)
# T1 construct: cell division protein FtsB of E. coli; The end of the FP is read from the printed name; also called wild-type FtsB-mNG; source: E. coli, from plasmid, in the cells (FP in the periplasm); not shown: mNeongreen, C-terminal, kept
# T1 sequence (looked up): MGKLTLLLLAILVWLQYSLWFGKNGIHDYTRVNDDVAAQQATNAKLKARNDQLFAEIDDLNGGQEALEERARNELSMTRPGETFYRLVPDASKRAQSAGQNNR
# T2: FtsL-mNG (E. coli, UniProt P0AEN4 1-121)
# T2 construct: cell division protein FtsL of E. coli; The end of the FP is read from the printed name FtsL-mNG; source: E. coli, from plasmid, in the cells (FP in the periplasm); not shown: mNeongreen, C-terminal, kept
# T2 sequence (looked up): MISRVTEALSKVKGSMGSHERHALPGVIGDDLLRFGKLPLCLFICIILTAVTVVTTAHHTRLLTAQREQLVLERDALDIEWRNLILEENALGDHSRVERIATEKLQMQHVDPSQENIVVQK
# Assays:
# Experiment in all cases: FRET or BRET; in vivo in the periplasm of E. coli; donor sfTq2 or sfTq2^ox, acceptor mNG, each fused to one partner; emission spectra taken with a fluorometer and unmixed, EfA from sensitised emission; PBP5 dimerisation in CS109 ΔdacA, controls in LMC500 and CS109 ΔdacA
# [1] = molecular target: the molecule itself
# FtsB-mNG = molecular target: T1, FtsB-mNG; conditions: partners not purified
# FtsL-mNG = molecular target: T2, FtsL-mNG; conditions: partners not purified
Binder,EfA (FRET efficiency) [1],further results
"PBP5 (D,D-carboxypeptidase) fused to sfTq2 (donor copy) or mNeongreen (acceptor copy) (enzyme, E. coli, UniProt P0AEB2 30-403, looked up, PBP5 (D,D-carboxypeptidase, encoded by dacA) of E. coli; Self-association measured between two differently fused copies (sfTq2-PBP5 and mNG-PBP5); PBP5's own signal peptide is probably replaced by that of DsbA (surmised); also called sfTq2-PBP5; DsbA^ss-FP-PBP5; source: E. coli CS109 ΔdacA, from plasmid, in the periplasm of the cells; not shown: sfTq2 (on the donor copy), N-terminal, kept; …) DDLNIKTMIPGVPQIDAESYILIDYNSGKVLAEQNADVRRDPASLTKMMTSYVIGQAMKAGKFKETDLVTIGNDAWATGNPVFKGSSLMFLKPGMQVPVSQLIRGINLQSGNDACVAMADFAAGSQDAFVGLMNSYVNALGLKNTHFQTVHGLDADGQYSSARDMALIGQALIRDVPNEYSIYKEKEFTFNGIRQLNRNGLLWDNSLNVDGIKTGHTDKAGYNLVASATEGQMRLISAVMGGRTFKGREAESKKLLTWGFRFFETVNPLKVGKEFASEPVWFGDSDRASLGVDKDVYLTIPRGRMKDLKASYVLNSSELHAPLQKNQVVGTINFQLDGKTIEQRPLVVLQEIPEGNFFGKIIDYIKLMFHHWFG",4.2%,
"PBP5^S44G (inactive mutant) fused to sfTq2 (donor copy) or mNeongreen (acceptor copy) (enzyme, E. coli, UniProt P0AEB2 30-403, looked up, PBP5 (D,D-carboxypeptidase, encoded by dacA) of E. coli with S44G; Self-association measured between two differently fused copies; source: E. coli CS109 ΔdacA, from plasmid, in the periplasm of the cells; not shown: sfTq2 (on the donor copy), N-terminal, kept; mNeongreen (on the acceptor copy), N-terminal, kept) DDLNIKTMIPGVPQIDAESYILIDYNSGKVLAEQNADVRRDPAGLTKMMTSYVIGQAMKAGKFKETDLVTIGNDAWATGNPVFKGSSLMFLKPGMQVPVSQLIRGINLQSGNDACVAMADFAAGSQDAFVGLMNSYVNALGLKNTHFQTVHGLDADGQYSSARDMALIGQALIRDVPNEYSIYKEKEFTFNGIRQLNRNGLLWDNSLNVDGIKTGHTDKAGYNLVASATEGQMRLISAVMGGRTFKGREAESKKLLTWGFRFFETVNPLKVGKEFASEPVWFGDSDRASLGVDKDVYLTIPRGRMKDLKASYVLNSSELHAPLQKNQVVGTINFQLDGKTIEQRPLVVLQEIPEGNFFGKIIDYIKLMFHHWFG",8.8%,
"FtsL-sfTq2^ox (natural protein, E. coli, UniProt P0AEN4 1-121, looked up, cell division protein FtsL of E. coli; The end of the FP is read from the printed name; source: E. coli, from plasmid, in the cells (FP in the periplasm); not shown: sfTq2^ox, C-terminal, kept) MISRVTEALSKVKGSMGSHERHALPGVIGDDLLRFGKLPLCLFICIILTAVTVVTTAHHTRLLTAQREQLVLERDALDIEWRNLILEENALGDHSRVERIATEKLQMQHVDPSQENIVVQK",,EfA (FRET efficiency) (FtsB-mNG): 15.6%
"FtsB-sfTq2^ox (natural protein, E. coli, UniProt P0A6S5 1-103, looked up, cell division protein FtsB of E. coli; The end of the FP is read from the printed name FtsB-sfTq2^ox; source: E. coli, from plasmid, in the cells (FP in the periplasm); not shown: sfTq2^ox, C-terminal, kept) MGKLTLLLLAILVWLQYSLWFGKNGIHDYTRVNDDVAAQQATNAKLKARNDQLFAEIDDLNGGQEALEERARNELSMTRPGETFYRLVPDASKRAQSAGQNNR",,EfA (FRET efficiency) (FtsL-mNG): 19.2%

# Reference: article PMC6850650, “Superfolder mTurquoise2^ox optimized for the bacterial periplasm allows high efficiency in vivo FRET of cell division antibiotic targets” (Molecular Microbiology, 2019)
